The values below come from patent US8420776B2, “Ube2G2 binding domain in the ubiquitin ligase gp78 and methods of use thereof” (The United States of America, as Represented by the …, priority 2004, dated 2013).

Holding throughout (assay type): cell-based
For test [1], the target named is T1, Myc-Ube2G2 (Mus musculus, UniProt P60605).
T1 construct: expressed in transfected cells; host or cells: HEK 293T
T1 sequence (P60605 1-165): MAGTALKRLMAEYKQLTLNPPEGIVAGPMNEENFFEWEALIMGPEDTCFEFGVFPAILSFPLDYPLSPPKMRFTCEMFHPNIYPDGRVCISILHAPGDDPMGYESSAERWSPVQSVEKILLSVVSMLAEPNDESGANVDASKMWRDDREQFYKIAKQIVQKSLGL
Kind of test: Co-immunoprecipitation with co-expressed Myc-Ube2G2 in cells. To be noted: anti-Myc IP, anti-gp78 IB; MG132 8 hr. As for the experimental part: (§1) Transfections of HT1080, NIH 3T3 and HEK 293T cells were carried out ˜24 hr after plating using Polyfect (Qiagen, Valencia, Calif.) and cells harvested after ˜48 hr. J558 cells were transfected by electroporation using Bio-rad GENE pulser II at settings of 250 v, 950uF. Vector without insert was used to equalize total plasmid. In most experiments 0.15 μg of pEGFP-C1 served as an internal control. For experiments not involving immunoprecipitation, 6×10^5 cells were plated in 6 well plates and cell lysis was with Mammalian Protein Extraction Reagent (Pierce). For immunoprecipitation, 2.4×10^6 cells were seeded in 100 mm dishes and cells were lysed in RIPA buffer (1×PBS, 1% Nonidet P40. 0.5% sodium deoxycholate, 0.1% SDS). Lysis buffers were supplemented with Protease Inhibitor Cocktail (Sigma) and 10 mM iodoacetamide. Supernatants were analyzed after a 10,000×g centrifugation using standard techniques for immunoprecipitation, SDS-PAGE, immunoblotting and ECL. Treatment of cells with MG132 (Sigma) was at 50 μM for eight hr. Cycloheximnide was used at 50 μg/ml. All cells were collected at the end of the six hr chase.
FIG. 5 depicts the results of immunoprecipitation of Ube2G2 (MmUbc7) from HEK 293T cells co-transfected with a plasmid encoding myc-tagged MmUbc7/Ube2G2 together with s plasmid encoding various forms of gp78. HEK 293T cells were transfected with a plasmid encoding myc-tagged MmUbc7/Ube2G2 together with plasmids encoding various forms of gp78. After 48 hours, cells were harvested and co-immuntoprecipitated with an anti-Myc tage. Anti-gp78 was used for detection. “R2M” indicates a mutation of two crucial residues in the RING finger. “T” indicates C terminal truncations at the indicated amino acids. ΔB is the mutation indicated above in FIG. 4 in the context of the full length gp78 and “Cue12M” indicates mutations in the Cue domain of gp78.
To confirm the significance of the Ube2G2 binding site in cells, a variety of mutations and truncations of full-length gp78 were tested for binding of co-expressed Myc-Ube2G2 (FIG. 19A). Cells were treated with the proteasome inhibitor MG132 in an attempt to equalize levels of the various forms of gp78.

In test [2] the test system is ERAD substrate CD3-δ. Kind of test: Cycloheximide chase of CD3-δ in co-transfected cells. To be noted: co-transfection with HA-CD3-δ. As for the experimental part:
as §1
(§2) To evaluate protein turnover in more detail, cycloheximide chase experiments were performed (FIGS. 20C and 20D). […] In agreement with FIG. 20A, CD3-δ degradation was accelerated with wild type gp78 (FIGS. 20C and 20D middle panels; effects of full-length forms of gp78 on CD3-δ from FIGS. 20C and 20D are quantified in FIG. 20E).

The test system of test [3] is gp78. Nature of the test: Cycloheximide chase of gp78 in transfected cells. To be noted: compared to wild type gp78. On the procedure:
as §1, §2

Test [4] concerns ERAD substrate CD3-δ. Nature of the test: CD3-δ level in co-transfected cells by immunoblotting. To be noted: co-transfection with CD3-δ; immunoblot. As for the experimental part:
as §1
FIG. 7 depicts the stabilization of CD3-δ protein in cells transfected with the G2BD, but not with the G2BD with amino acids 579-584 (of SEQ ID NO:2) mutated. HEK 293T cells were transfected with the ERAD substrate CD3-δ along with the indicated GFP fusions of gp78. The left and right sides are two separate experiments.
To test this, GFP fusions of either a minimal E2 binding domain (GFP-574-611) or a more extended region that includes the C-terminus of gp78 (GFP-574-643) were evaluated (FIG. 21A). […] To assess this further, the C-terminal region of gp78 was fused to the eight amino acid Flag tag. […] Mdm2 is a RING finger E3 for both itself and p53 that is neither an ERAD substrate nor known to utilize Ube2G2 as an E2. […] To establish with certainty that the effect observed with expression of the Ube2G2 binding site is a consequence of binding endogenous E2, and not due to other unanticipated effects, cells were co-transfected with increasing amounts of Ube2G2 (FIG. 21C, lanes 3 and 4). […] These findings clearly establish that the isolated E2 binding site has the potential to markedly alter ERAD of CD3-δ. To ensure the effect observed was not peculiar to one substrate, TCR-α was evaluated (FIG. 21D).

Test [5] relates to gp78. Kind of test: gp78 ubiquitylation in transfected cells (IP anti-gp78, IB anti-ubiquitin). To be noted: 50 μM MG132 eight hours. On the procedure:
FIGS. 20A-20E depict the requirement of multiple domains of gp78 to target itself and a heterologous ERAD substrate. (FIG. 20A) Cells were co-transfected with the indicated forms of full length gp78 together with CD3-δ and lysates analyzed by IB. (B) Cells were transfected with wild type and mutant gp78 plasmids as indicated. Samples were treated with 50 μM MG132 for eight hours, lysates IP'ed with anti-gp78 followed by […] with either antiubiquitin (upper) or anti-gp78 (lower). Arrow in upper panel indicates migration of unmodified gp78. (FIGS. 20C and 20D) Cells were co-transfected with HA-CD3-δ and wild type (WT) or mutant forms of gp78. Cells were treated with cycloheximide (CHX) as indicated. (FIG. 20E) Graphic representation of CD3-δ levels from FIGS. 20C and 20D (fall length gp78 transfections only), Cue-m1, 2 is the average of data shown in FIGS. 20C and 20D.
as §1, with “Lysis buffers were supplemented with Protease Inhibitor Cocktail (Sigma) and 10 mM iodoacetamide.” left out, “Treatment of cells with MG132 (Sigma) was at 50 μM for eight hr. Cycloheximnide was used at 50 μg/ml. All cells were collected at the end of the six hr chase.” left out
gp78 is degraded in a proteasome-dependent manner, and deletion of the entire cytoplasmic domain results in its stabilization. […] To determine the significance of the RING finger, Cue domain and Ube2G2 binding site on gp78 stability, mutations of each were evaluated within full-length gp78. […]

B1: gp78611: gp78 truncated after residue 611 of SEQ ID NO:2 (protein, listed as Homo sapiens)
chain: MPLLFLERFPWPSLRTYTGLSGLALLGTIISAYRALSQPEAGPGEPDQLTASLQPEPPAPARPSAGGPRARDVAQYLLSDSLFVWVLVNTACCVLMLVAKLIQCIVFGPLRVSERQHLKDKFWNFIFYKFIFIFGVLNVQTVEEVVMWCLWFAGLVFLHLMVQLCKDRFEYLSFSPTTPMSSHGRVLSLLVAMLLSCCGLAAVCSITGYTHGMHTLAFMAAESLLVTVRTAHVILRYVIHLWDLNHEGTWEGKGTYVYYTDFVMELTLLSLDLMHHIHMLLFGNIWLSMASLVIFMQLRYLFHEVQRRIRRHKNYLRVVGNMEARFAVATPEELAVNNDDCAICWDSMQAARKLPCGHLFHNSCLRSWLEQDTSCPTCRMSLNIADNNRVREEHQGENLDENLVPVAAAEGRPRLNQHNHFFHFDGSRIASWLPSFSVEVMHTTNILGITQASNSQLNAMAHQIQEMFPQVPYHLVLQDLQLTRSVEITTDNILEGRIQVPFPTQRSDSIRPALNSPVERPSSDQEEGETSAQTERVPLDLSPRLEETLDFGEVEVEPSEVEDFEARGSRFSKSADERQRMLVQRKDELLQQARKRFLNKSSEDDAASESF
With B1, the “E2 association of full-length gp78 forms with co-expressed Myc-Ube2G2” value in test [1] is given as “retained E2 binding”. Moreover, in test [2], the “effect on CD3-δ degradation” value is given as “enhanced loss of CD3-δ”. For the same molecule, in test [3], the gp78 stability entry is recorded as “did not stabilize gp78”.

B2: gp78595: gp78 truncated after amino acid 595 of SEQ ID NO:2 (protein, listed as Homo sapiens)
chain: MPLLFLERFPWPSLRTYTGLSGLALLGTIISAYRALSQPEAGPGEPDQLTASLQPEPPAPARPSAGGPRARDVAQYLLSDSLFVWVLVNTACCVLMLVAKLIQCIVFGPLRVSERQHLKDKFWNFIFYKFIFIFGVLNVQTVEEVVMWCLWFAGLVFLHLMVQLCKDRFEYLSFSPTTPMSSHGRVLSLLVAMLLSCCGLAAVCSITGYTHGMHTLAFMAAESLLVTVRTAHVILRYVIHLWDLNHEGTWEGKGTYVYYTDFVMELTLLSLDLMHHIHMLLFGNIWLSMASLVIFMQLRYLFHEVQRRIRRHKNYLRVVGNMEARFAVATPEELAVNNDDCAICWDSMQAARKLPCGHLFHNSCLRSWLEQDTSCPTCRMSLNIADNNRVREEHQGENLDENLVPVAAAEGRPRLNQHNHFFHFDGSRIASWLPSFSVEVMHTTNILGITQASNSQLNAMAHQIQEMFPQVPYHLVLQDLQLTRSVEITTDNILEGRIQVPFPTQRSDSIRPALNSPVERPSSDQEEGETSAQTERVPLDLSPRLEETLDFGEVEVEPSEVEDFEARGSRFSKSADERQRMLVQRKDELLQQARK
As for B2, the “E2 association of full-length gp78 forms with co-expressed Myc-Ube2G2” value in test [1] is recorded as “loss of E2 binding”. In test [2], the “effect on CD3-δ degradation” value is reported as “minimal stabilization of CD3-δ”. The gp78 stability entry in test [3] was “stabilized gp78”.

B3: wild type gp78: full-length wild type human gp78 ubiquitin ligase expressed in cells (protein, listed as Homo sapiens)
chain: MPLLFLERFPWPSLRTYTGLSGLALLGTIISAYRALSQPEAGPGEPDQLTASLQPEPPAPARPSAGGPRARDVAQYLLSDSLFVWVLVNTACCVLMLVAKLIQCIVFGPLRVSERQHLKDKFWNFIFYKFIFIFGVLNVQTVEEVVMWCLWFAGLVFLHLMVQLCKDRFEYLSFSPTTPMSSHGRVLSLLVAMLLSCCGLAAVCSITGYTHGMHTLAFMAAESLLVTVRTAHVILRYVIHLWDLNHEGTWEGKGTYVYYTDFVMELTLLSLDLMHHIHMLLFGNIWLSMASLVIFMQLRYLFHEVQRRIRRHKNYLRVVGNMEARFAVATPEELAVNNDDCAICWDSMQAARKLPCGHLFHNSCLRSWLEQDTSCPTCRMSLNIADNNRVREEHQGENLDENLVPVAAAEGRPRLNQHNHFFHFDGSRIASWLPSFSVEVMHTTNILGITQASNSQLNAMAHQIQEMFPQVPYHLVLQDLQLTRSVEITTDNILEGRIQVPFPTQRSDSIRPALNSPVERPSSDQEEGETSAQTERVPLDLSPRLEETLDFGEVEVEPSEVEDFEARGSRFSKSADERQRMLVQRKDELLQQARKRFLNKSSEDDAASESFLPLEGASSDPVTLRRRMLAAAAERRLQKQQTS
In the case of B3, in test [4], the “effect on CD3-δ level (stabilization)” value is recorded as “decreased CD3-δ levels”. In test [2], the “effect on CD3-δ degradation” value was “accelerated”. Also, the “gp78 ubiquitylation (ubiquitin immunoreactivity)” value in test [5] is on record as “ubiquitylation was observed”.
